This note sets out measurements from patent publication US20160200782A1 (MOERAE MATRIX, published 2016).

Common to all, as to assay: cell-based or functional assay
Assay [1] has as its target Met(D1246H)(h) (human, UniProt P08581-2 974-1408, limits assumed).
For assay [2], the target named is T1, PKCµ(h) (human, UniProt Q15139 1-912, limits assumed).
T1 sequence (looked up): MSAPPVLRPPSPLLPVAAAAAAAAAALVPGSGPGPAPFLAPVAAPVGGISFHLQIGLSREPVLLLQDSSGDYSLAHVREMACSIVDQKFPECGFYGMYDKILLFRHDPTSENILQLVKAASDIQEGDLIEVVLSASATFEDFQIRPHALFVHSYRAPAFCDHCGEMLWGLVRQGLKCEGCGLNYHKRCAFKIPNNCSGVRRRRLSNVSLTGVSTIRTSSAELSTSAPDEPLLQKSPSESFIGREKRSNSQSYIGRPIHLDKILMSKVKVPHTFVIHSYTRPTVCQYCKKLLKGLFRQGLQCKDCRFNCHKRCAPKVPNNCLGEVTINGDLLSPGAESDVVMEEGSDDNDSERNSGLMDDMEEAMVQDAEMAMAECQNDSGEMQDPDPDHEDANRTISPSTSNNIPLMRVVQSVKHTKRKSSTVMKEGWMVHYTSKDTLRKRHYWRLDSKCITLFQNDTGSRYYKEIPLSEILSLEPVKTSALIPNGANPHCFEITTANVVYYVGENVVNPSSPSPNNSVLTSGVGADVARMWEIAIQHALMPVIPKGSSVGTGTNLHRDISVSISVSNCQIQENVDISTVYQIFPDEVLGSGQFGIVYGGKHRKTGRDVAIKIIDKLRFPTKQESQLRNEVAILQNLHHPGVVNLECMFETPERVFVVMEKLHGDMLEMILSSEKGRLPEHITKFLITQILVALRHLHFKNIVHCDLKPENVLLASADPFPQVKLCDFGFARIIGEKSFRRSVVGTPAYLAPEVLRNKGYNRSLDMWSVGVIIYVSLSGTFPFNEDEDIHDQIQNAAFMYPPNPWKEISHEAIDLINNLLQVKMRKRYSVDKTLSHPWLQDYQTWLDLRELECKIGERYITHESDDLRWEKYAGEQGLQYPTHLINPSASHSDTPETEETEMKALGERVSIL

Assay [3] concerns the target T2, BrSK1(h) (human, UniProt Q8TDC3 1-778, limits assumed).
T2 sequence (looked up): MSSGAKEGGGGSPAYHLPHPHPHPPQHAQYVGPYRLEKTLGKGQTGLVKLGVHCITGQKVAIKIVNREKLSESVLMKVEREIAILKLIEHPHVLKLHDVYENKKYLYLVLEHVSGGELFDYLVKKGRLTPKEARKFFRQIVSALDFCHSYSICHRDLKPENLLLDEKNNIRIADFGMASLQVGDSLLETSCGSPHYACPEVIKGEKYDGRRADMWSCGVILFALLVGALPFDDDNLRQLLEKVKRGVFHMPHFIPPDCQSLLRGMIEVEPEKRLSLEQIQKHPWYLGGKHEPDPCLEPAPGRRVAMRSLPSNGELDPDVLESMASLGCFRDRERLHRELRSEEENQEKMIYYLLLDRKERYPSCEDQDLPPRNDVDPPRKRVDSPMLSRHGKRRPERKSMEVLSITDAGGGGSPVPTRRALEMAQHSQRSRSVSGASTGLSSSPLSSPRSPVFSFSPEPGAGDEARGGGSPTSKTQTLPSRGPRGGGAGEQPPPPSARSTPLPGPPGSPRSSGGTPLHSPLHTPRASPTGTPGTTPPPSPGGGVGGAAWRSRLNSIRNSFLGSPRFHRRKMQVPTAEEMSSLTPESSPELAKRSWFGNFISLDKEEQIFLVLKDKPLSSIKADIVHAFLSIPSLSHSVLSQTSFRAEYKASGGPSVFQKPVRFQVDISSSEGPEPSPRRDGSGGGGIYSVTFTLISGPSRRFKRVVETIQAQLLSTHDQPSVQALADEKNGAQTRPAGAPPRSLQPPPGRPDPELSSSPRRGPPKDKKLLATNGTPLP

Assay [4] addresses T3, Flt1(h) (human, UniProt P17948 781-1338, limits assumed).
T3 sequence (looked up): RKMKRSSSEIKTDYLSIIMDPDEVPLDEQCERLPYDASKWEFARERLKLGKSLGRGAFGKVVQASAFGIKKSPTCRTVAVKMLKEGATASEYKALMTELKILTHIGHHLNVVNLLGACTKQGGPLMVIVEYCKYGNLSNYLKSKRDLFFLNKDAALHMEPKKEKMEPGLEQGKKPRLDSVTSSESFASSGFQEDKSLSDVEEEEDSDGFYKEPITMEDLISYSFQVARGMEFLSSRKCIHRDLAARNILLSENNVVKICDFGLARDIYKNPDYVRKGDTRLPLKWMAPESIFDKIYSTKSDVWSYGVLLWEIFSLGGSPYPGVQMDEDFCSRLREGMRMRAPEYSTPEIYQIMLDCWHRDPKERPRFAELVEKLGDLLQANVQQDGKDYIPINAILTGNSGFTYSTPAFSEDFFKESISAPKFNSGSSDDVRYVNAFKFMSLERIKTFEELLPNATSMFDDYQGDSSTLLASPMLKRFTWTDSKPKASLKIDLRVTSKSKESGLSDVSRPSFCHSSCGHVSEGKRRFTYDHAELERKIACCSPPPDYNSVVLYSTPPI
Also: test concentration or dose not given here.

Take FAKLAARLYRKALARQLGVAA [MMI-0300]: the “% activity” value in assay [1] came out at 125%; in assay [2], 22%; in assay [3], 67%; in assay [4], 69%.

Regarding KAFAKLAARLYRKALARQLGVAA [MMI-0400], the “% activity” value was 68% in assay [1], 14% in assay [2], 76% in assay [3] and 48% in assay [4].
